According to US20020019341A1 (Stanford University, published 2002):
One block for each molecule: values may come before it.

Legend:
human CCR4 (human) = human CCR4 (human) (UniProt P51679); assay: cell-based or functional assay
integrin α4β7 = molecular target: T1, integrin α4β7 (human, UniProt P13612 34-1032; P26010 20-798); assay: cell adhesion to MAdCAM-1 transfectants, elution with 0.5mM EDTA
T1 construct: whole, on cells; also called a4p7
T1 sequence (P13612 34-1032, chain 1 of 2): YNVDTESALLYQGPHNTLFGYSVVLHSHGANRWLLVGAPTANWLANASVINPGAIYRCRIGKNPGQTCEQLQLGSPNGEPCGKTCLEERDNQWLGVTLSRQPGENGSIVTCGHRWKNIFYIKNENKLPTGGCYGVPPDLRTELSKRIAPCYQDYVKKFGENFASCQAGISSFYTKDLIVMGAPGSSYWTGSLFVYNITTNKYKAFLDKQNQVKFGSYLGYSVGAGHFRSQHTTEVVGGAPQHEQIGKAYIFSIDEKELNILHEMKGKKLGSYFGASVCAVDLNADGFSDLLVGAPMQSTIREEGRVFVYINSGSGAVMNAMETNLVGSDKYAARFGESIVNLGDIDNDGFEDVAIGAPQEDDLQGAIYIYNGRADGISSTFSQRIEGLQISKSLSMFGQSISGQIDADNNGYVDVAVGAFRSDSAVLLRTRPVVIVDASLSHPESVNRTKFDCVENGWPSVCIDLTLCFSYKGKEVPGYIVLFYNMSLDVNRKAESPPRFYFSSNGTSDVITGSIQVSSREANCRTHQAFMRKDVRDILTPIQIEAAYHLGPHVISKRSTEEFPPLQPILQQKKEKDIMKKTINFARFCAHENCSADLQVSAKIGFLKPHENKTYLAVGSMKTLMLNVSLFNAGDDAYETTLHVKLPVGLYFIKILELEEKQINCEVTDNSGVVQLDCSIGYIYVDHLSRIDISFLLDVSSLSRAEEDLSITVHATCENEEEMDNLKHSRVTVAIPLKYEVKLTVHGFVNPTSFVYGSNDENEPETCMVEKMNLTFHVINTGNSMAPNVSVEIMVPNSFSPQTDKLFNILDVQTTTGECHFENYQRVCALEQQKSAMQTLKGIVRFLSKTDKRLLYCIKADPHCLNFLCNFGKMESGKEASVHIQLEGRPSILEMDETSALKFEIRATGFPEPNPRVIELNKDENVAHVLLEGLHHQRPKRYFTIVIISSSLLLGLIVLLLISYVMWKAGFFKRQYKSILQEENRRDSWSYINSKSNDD
T1 sequence (P26010 20-798, chain 2 of 2): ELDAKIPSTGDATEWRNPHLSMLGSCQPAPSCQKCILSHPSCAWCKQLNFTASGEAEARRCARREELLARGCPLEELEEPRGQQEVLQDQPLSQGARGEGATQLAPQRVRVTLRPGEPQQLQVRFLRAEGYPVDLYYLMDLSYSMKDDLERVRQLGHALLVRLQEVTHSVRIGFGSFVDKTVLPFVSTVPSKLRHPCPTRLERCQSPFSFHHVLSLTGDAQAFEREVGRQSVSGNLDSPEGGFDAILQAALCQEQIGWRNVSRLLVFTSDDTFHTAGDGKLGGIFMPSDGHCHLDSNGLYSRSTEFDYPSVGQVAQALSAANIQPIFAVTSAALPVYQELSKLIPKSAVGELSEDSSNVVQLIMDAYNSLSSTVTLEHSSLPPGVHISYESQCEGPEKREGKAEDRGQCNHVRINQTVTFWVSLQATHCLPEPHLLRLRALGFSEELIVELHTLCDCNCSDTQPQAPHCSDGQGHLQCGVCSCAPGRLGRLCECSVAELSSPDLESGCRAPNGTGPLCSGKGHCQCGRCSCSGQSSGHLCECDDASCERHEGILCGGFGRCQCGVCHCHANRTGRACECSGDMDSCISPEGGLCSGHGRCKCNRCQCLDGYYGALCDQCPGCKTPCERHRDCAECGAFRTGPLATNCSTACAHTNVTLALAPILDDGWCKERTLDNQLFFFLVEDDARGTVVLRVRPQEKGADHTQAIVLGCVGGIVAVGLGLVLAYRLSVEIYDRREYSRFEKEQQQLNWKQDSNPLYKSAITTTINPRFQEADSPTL

Sequence of human CCR4 (human) (P51679 whole entry): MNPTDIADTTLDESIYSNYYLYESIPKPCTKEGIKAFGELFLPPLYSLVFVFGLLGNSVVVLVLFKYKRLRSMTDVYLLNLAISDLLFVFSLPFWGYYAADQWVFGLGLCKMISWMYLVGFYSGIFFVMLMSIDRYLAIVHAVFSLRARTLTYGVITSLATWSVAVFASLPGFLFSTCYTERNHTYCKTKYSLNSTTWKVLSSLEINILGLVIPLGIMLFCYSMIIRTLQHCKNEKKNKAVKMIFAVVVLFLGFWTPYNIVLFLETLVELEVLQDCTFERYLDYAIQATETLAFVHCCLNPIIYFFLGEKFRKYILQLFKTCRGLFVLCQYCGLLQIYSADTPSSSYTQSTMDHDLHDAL

rapid adhesion of α4β7(-) memory CD4+ lymphocytes to immobilized ICAM-1 (static assay, TARC at 1 µM) (% of input cells) (human CCR4 (human)): < 50
Molecule: human TARC (thymus and activation-regulated chemokine) (from UniProt Q92583 24-94) (ligand)

binding result (integrin α4β7): binds
B1: murine MAdCAM-1 (receptor, UniProt Q61826 22-405, looked up)
chain: QSFQVNPPESEVAVAMGTSLQITCSMSCDEGVARVHWRGLDTSLGSVQTLPGSSILSVRGMLSDTGTPVCVGSCGSRSFQHSVKILVYAFPDQLVVSPEFLVPGQDQVVSCTAHNIWPADPNSLSFALLLGEQRLEGAQALEPEQEEEIQEAEGTPLFRMTQRWRLPSLGTPAPPALHCQVTMQLPKLVLTHRKEIPVLQSQTSPKPPNTTSAEPYILTSSSTAEAVSTGLNITTLPSAPPYPKLSPRTLSSEGPCRPKIHQDLEAGWELLCEASCGPGVTVRWTLAPGDLATYHKREAGAQAWLSVLPPGPMVEGWFQCRQDPGGEVTNLYVPGQVTPNSSSTVVLWIGSLVLGLLALVFLAYRLWKCYRPGPRPDTSSCTHL
notes: whole, on cells; CHO cells transfected with murine MAdCAM-1; also called mucosal addressin cell adhesion molecule
